Test: soluble on expression in E. coli; label from the status in PepcDB or PDB records

| Sequence | soluble on expression in E. coli |
| --- | --- |
| MPYLLEMKNITKTFGSVKAIDNVCLRLNAGEIVSLCGENGSGKSTLMKVLCGIYPHGSYEGEIIFAGEEIQASHIRDTERKGIAIIHQELALVKELTVLENIFLGNEITHNGIMDYDLMTLRCQKLLAQVSLSISPDTRVGDLGLGQQQLVEIAKALNKQVRLLILDEPTASLTEQETSILLDIIRDLQQHGIACIYISHKLNEVKAISDTICVIRDGQHIGTRDAAGMSEDDIITMMVGRELTALYPNEPHTTGDEILRIEHLTAWHPVNRHIKRVNDVSFSLKRGEILGIAGLVGAGRTETIQCLFGVWPGQWEGKIYIDGKQVDIRNCQQAIAQGIAMVPEDRKRDGIVPVMAVGKNITLAALNKFTGGISQLDDAAEQKCILESIQQLKVKTSSPDLAIGRLSGGNQQKAILARCLLLNPRILILDEPTRGIDIGAKYEIYKLINQLVQQGIAVIVISSELPEVLGLSDRVLVMHEGKLKANLINHNLTQEQVMEAALRSEHHVEKQSV | not soluble |
| MPYPKKVTIKEVGPRDGLQNEPVWIATEDKITWINQLSRTGLSYIEITSFVHPKWIPALRDAIDVAKGIDREKGVTYAALVPNQRGLENALEGGINEACVFMSASETHNRKNINKSTSESLHILKQVNNDAQKANLTTRAYLSTVFGCPYEKDVPIEQVIRLSEALFEFGISELSLGDTIGAANPAQVETVLEALLARFPANQIALHFHDTRGTALANMVTALQMGITVFDGSAGGLGGCPYAPGSSGNAATEDIVYMLEQMDIKTNVKLEKLLSAAKWIEEKMGKPLPSRNLQVFKSSLEHHHHHH | soluble |
| MPYQQITVNVNDAVAERLADALMEHGALSAAIEDAYAGTQNEQAIFGEPGMPAEQIWQQSKVIALFGEHDEAAAIIQTATQECGLK | not soluble |
| MPYVDRQNRICGFLDIEDNENSGKFLRRYFILDTQANCLLWYMDNPQNLAVGAGAVGSLQLTYISKVSIATPKQKPKTPFCFVINALSQRYFLQANDQKDLKDWVEALNQASKITVPKAGTVPLATEVLKNLTAPPTLEKKPQVAYKTEIIGGVVVQTPISQNGGDGQEGCEPGTHAFLRRSQSYIPTSGCRPSTGPPLIKSGYCVKQGNVRKSWKRRFFALDDFTICYFKCEQDREPLRTIPLKDVLKTHECLVKSGDLLMRDNLFEIITTSRTFYVQADSPEDMHSWIEGIGAAVQALKCHPREPSFSRSISLTRPGSSTLTSAPNSILSRRRPPAEEKRGLCKAPSVASSWQPWTPVPQAEEKPLSVEHAPEDSLFMPNPGESTATGVLASSRVRHRSEPQHPKEKPFVFNLDDENIRTSDV | soluble |
| MQARVKWVEGLTFLGESASGHQILMDGNSGDKAPSPMEMVLMAAGGCSAIDVVSILQKGRQDVVDCEVKLTSERREADTRLFTHINLHFIVTGRDLKDAAVARAVDLSAEKYCSVALMLEKAVNITHSYEVVAA | soluble |
| MQASDRFNINSQLEHLQAKYVGTGHADLSRFEWAVNIQRDSYASYIGHYPMLSYFAIAENESIGRERYNFMQKMLLPCGLPPEREEE | soluble |
| MQDDKKVAFPGDMIATTEEYLPGKNTEEKNGEIIAVKFGQIIRDDINLLISVDTQKKEFTLKKGDIVYGQVVKGEQHRYIVRIVGAFQKGLGLREIDEEMQLSLGIARRPQSDFIAIGDLIRGYVIRTGDFPEISINGNHYGVISAVCLRCRQPLVKRGITLYCENCQRTEIRKMADDYGNVDIFNYENRIQNQVKANGKRRLEHHHHHH | soluble |
| MQDPYVKEAENLKKYFNAGHSDVADNGTLFLGILKNWKEESDRKIMQSQIVSFYFKLFKNFKDDQSIQKSVETIKEDMNVKFFNSNKKKRDDFEKLTNYSVTDLNVQRKAIDELIQVMAEFSTEEQQEGPYVKEAENLKKYFNAGHSDVADNGTLFLGILKNWKEESDRKIMQSQIVSFYFKLFKNFKDDQSIQKSVETIKEDMNVKFFNSNKKKRDDFEKLTNYSVTDLNVQRKAIHELIQVMAELSPAAKTGKRKRSQMLFRG | soluble |
| MQDTIFLKGMRFYGYHGALSAENEIGQIFKVDVTLKVDLSEAGRTDNVIDTVHYGEVFEEVKSIMEGKAVNLLEHLAERIANRINSQYNRVMETKVRITKENPPIPGHYDGVGIEIVRENK | soluble |
| MQENPTVWLFDLDNTLHDADAGIFHLINRAMTRYMARRLKLSESAASDLRQDYWHRYGATLAGLQIHHPEIDIAEFLRESHPIDAILTRLHGMADTENTLCRLNGRKAVFSNGPSFYVRAVAGALGLENCFDALFGTDDFGLLYKPNPQAYLNVCRLLDVPPECCIMVDDSADNLHQAKALGMKTVRFGAKSHAPPFIDASVSDMAQLARYAETLSERRQNHYNTRTPRKYERMLCVKPSLS | not soluble |
| MQERHTEQDYRALLIADTPIIDVRAPIEFEQGAMPAAINLPLMDNDERASVGTCYKQQGSDAALALGHKLVAGEIRQQRMYAWRAACLQNPQGILCCARGGQRSHIVQRWLHEAGIDYPLVEGGYKALRQTAIQATIELAQKPIVLIGGCTGSGKTLLVQQQPNGVDLEGLARHRGSAFGRTLQPQLSQASFENLLAAEMLKTDARQDLRLWVLEDESRMIGSNHLPECLRERMTQAAIAVVEDPFEIRLERLNEEYFLRMHHDFTHAYGDEQGWQEYCEYLHHGLSAIKRRLGLQRYNELAAQLDTALTTQLTTGSTDGHLAWLVPLLKEYYDPMYRYQLEKKAEKVVFRGEWAEVAVWVKAQLEHHHHHH | not soluble |
| MQGQIIKALAGFYYVESDGQVYQTRARGNFRKKGHTPYVGDWVDFSAEENSEGYILKIHERKNSLVRPPIVNIDQAVVIMSVKEPDFNSNLLDRFLVLLEHKGIHPIVYISKMDLLEDRGELDFYQQTYGDIGYDFVTSKEELLSLLTGKVTVFMGQTGVGKSTLLNKIAPDLNLETGEISDSLGRGRHTTRAVSFYNLNGGKIADTPGFSSLDYEVSRAEDLNQAFPEIATVSRDCKFRTCTHTHEPSCAVKPAVEEGVIATFRFDNYLQFLSEIENRRETYKKVSKKIPK | not soluble |
| MQGSVTEFLKPRLVDIEQISTTHAKVTLEPLERGFGHTLGNALRRILLSSMPGCAVTEVEIEGVLHEYSTKEGVQEDILEILLNLKGLAVRVAEGKDEVFITLNKSGSGPVVAGDITHDGDVEIVNPEHVICHLTSDNAAIAMRIKVERGRGYVPASARIHTEEDERPIGRLLVDATFSPVDKIAYSVEAARVEQRTDLDKLVIDMETNGTLEPEEAIRRAATILAEQLDAFVDLRDVRVPEEKEEKPEFDPILLRPVDDLELTVRSANCLKAEAIHYIGDLVQRTEVELLKTPNLGKKSLTEIKDVLASRGLSLGMRLENWPPASIAED | soluble |
| MQGVKERFLPLGNSGDRAPRPPDGRGRVRPRTQDGVGNHTMARIPKTLKFVVVIVAVLLPVSPRRGPWLGKSAPGAGRGQGDGDTAGMPGPGHLRPGMSGQDELAVGVRGRTGSPGWAGGTRPRGSREAVPLAAPSPRREGSSRIERGRESRWNP | soluble |
| MQHIYVPYHVRDHPMSSVCERFERELRRGAIQLEVICLLENERYGYEIVKKLKESGFRVEEGTLYPLLRRLEGEGILSSRWSTDDTRPRKYYTVTDYGKRVRKKWLELFRSINRSLEDLTEVDQ | not soluble |
| MQHQTLYQDDFVEIFEQDNEVFIKTFKPGLPPKQLNEILSSLPQIQITSFNCLNDALNIVSPSPQKFGRLKERIAITVTPDELKAFVTFNLPREELDIKNRENLIKETYQVLKKKNINFGIKKELFFGDLESGKKYLIAEGVPAVDGEDCKIRMYELEEPRPEIREDGKANYYELKLINKVKAGDWLGERIDATEGFPGKTVYGTTIHPVRGKNYPLSYDKNTVYEVVQNKKVVLYSKIDGAVHYDGNKITVSNHLEIDGDVDFKTGNIIFDGYVTIKGTVTDGFYVEATKDIEINSPLGLGNVKGIKSREGSIYIKGGISSKSFSEISARKNIYTKFVDNVKLSCGGTAHIGFYCINSMVEAKEVFIESIKGNIMGGQVKAEVKITVPVLGSPLEPRTVLILTGFDRKKLSKMLEDIVDRIDRIKEEQMDIKLYLSKQDPFKEMTSRETAEYNSKMQRMSELKAELKSLEEEKKNIARYLKTKGEGEIAITKKVYPNCSIIIKNIQTEIKEPCLATTFFAADGEIKRV | soluble |
| MQILEPQQFATWNEPIEMLYACHSKVKRFCRQLSILPDYLEKHGYTQAVLNDVEQILSYFNRAAPLHHDDEELDFFPQLVKVAPQTQTSIDELEKQHEYLHENWNALSVQLEELISEQRQDIDKHLIERFIQGYDRHIALEEPLFEMGRECLSADILTEMGKHMSARRQVKE | not soluble |
| MQIRFAGIGGQGVVLAGVILGEAAAIEGLRVLQTQDYSSASRGGHSIADVIISNEEIYDVMVTEADVLVALHQLGYETAKSKLKKDGILIIDTDLVKPDREYIGAPFTRIAEETTGLALTVNMVALGYLIGKTQIVKPESVEEAIRRRVPKGTEEINIKAFRKGLEVSMNE | not soluble |
| MQKIKVQDAIGSVLMHDLTQIIPGKTKDARFRKGHVIKEEDIPTLLSMGKEHIFVWDQTPGLIHEDEAAERLAKAVAGPGLSFSETKEGKVNLIAEEDGLIYASEEGIYALNSLEYIILATLHNHRPVKKGQKIAGTRVVPLMIDENVVIEAEGIARRFEEPILQIRPLQSKKVGVVTTGSEVYHGRIQDKFGPVLQRKVAEWGSVLLGQTFADDDVEMIQERIREHIEQGAEMVLVTGGMSVDPDDLTPTAIKGLGGRVDHLWHSCSSRSHAVAGLPGLEHHHHHH | not soluble |
| MQKTLSAIFLFTTLSANAAPYIGLELGIGTANHSFETNYQSDAVSLNPNMEDMFLGGLIGYKFNDNFSFEINYSSYKLEDQYSKFIGIESLNNQQYRKEHEWSSEIEAKQLALISVYSYPIHQQLKTNIKVGVTHTQYEAYSGKYEELELLLNDDIEIRKALLETGLKKNRFGALFSLGLDYNLIPELSVGTELRYQFDKYNDVLSISLNSKYYF | not soluble |
| MQKTVVEIEKASHVLKLLGDKTRLTIMAILKQRECCVCELLEVFDMSQPAISQHLRKLKDAGLVKEDKRGQWIYYSLNSQNELYDFIQDILQHIPDQTENIRKIEETNPTLRCGC | soluble |
| MQLEPQIKTQLQAIVEAARERRAEDVVALDLTEVSSSLEYFVICTASAGLQLNAVQENIREKAQEAGLPRPSIEGPSERWLLLAFGGSIVVHIMTKDAREYYDLEGLWSDAKVLDL | soluble |
| MQLGDKQLVVQLACANQQRHNTNLPNSASAIAGIDLSQGAGRATEILCLMNMVTEDELKADDEYEEILEDVRDECSKYGIVRSLEIPRPYEDHPVPGVGKVFVEFASTSDCQRAQAALTGRKFANRTVVTSYYDVDKYHNRQF | not soluble |
| MQLGETAEEACLRELYEETGLQLEIERLAFIHENFFTGQESDFLNKVNCHELSFYFLMKPLTENLSVKSESFGTDGSKEFLKWIPIAEYKNYKAFPTFFADELKNLSVNSQIKRIVTTELEHHHHHH | not soluble |
| MQLKTEYGKIDPYITKDGSIIRELMHPAIHGNSGQSLAEATVPAGGQTMLHKHAVAEEIYHITEGCGIMTLGGQEFEIRKGDTVCILPGTPHRIMNTGEKELKILCCCAPAYSHEDTELMKLEHHHHHH | soluble |
| MQNGYTYEDYQDTAKWLLSHTEQRPQVAVICGSGLGGLVNKLTQAQTFDYSEIPNFPESTVPGHAGRLVFGILNGRACVMMQGRFHMYEGYPFWKVTFPVRVFRLLGVETLVVTNAAGGLNPNFEVGDIMLIRDHINLPGFSGENPLRGPNEERFGVRFPAMSDAYDRDMRQKAHSTWKQMGEQRELQEGTYVMLGGPNFETVAECRLLRNLGADAVGMSTVPEVIVARHCGLRVFGFSLITNKVIMDYESQGKANHEEVLEAGKQAAQKLEQFVSLLMASIPV | soluble |
| MQNIPPQVQAMLGQLDTYQQQLQLVIQQKQKVQADLNEAKKALEEIETLPDDAQIYKTVGTLIVKTTKEKAVQELKEKIETLEVRLNALNRQEQKINEKVKELTQKIQAALRPPTAG | soluble |
